Legend:
[1] = test system: HeLa Kyoto; experiment: solubility change mitosis vs G1/S (difference of NP-40 vs SDS log2 ratios) (log2 ratio difference); higher = more soluble in mitosis
[2] = test system: HeLa Kyoto; experiment: solubility in G1/S (NP-40 vs SDS abundance) (log2 ratio); higher = more soluble; settings: cell cycle stage: G1/S
[3] = test system: HeLa Kyoto; experiment: thermal stability score vs G1/S (z-score of summed log2 fold changes over temperatures); higher = more thermally stable than in G1/S
[4] = test system: HeLa Kyoto; experiment: melting temperature (median over replicates), in situ; higher = more thermally stable
[5] = cell cycle stage: early G1 (4.5 h after nocodazole release)
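For melting temperature (median over replicates), in situ in this document: HeLa Kyoto cells synchronized by double thymidine or nocodazole block, proteins quantified by TMT10plex mass spectrometry, three independent biological replicates.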
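For solubility change mitosis vs G1/S (difference of NP-40 vs SDS log2 ratios) in this document: synchronized HeLa Kyoto cells (double thymidine block for G1/S, nocodazole release for mitosis), protein amounts in NP-40 versus SDS lysates quantified by mass spectrometry, three biological replicates.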
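For solubility in G1/S (NP-40 vs SDS abundance) in this document: HeLa Kyoto cells arrested at G1/S by double thymidine block, proteins quantified by TMT10plex mass spectrometry in mild NP-40 versus SDS extracts, three biological replicates.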
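For thermal stability score vs G1/S (z-score of summed log2 fold changes over temperatures) in this document: synchronized HeLa Kyoto cells, proteins quantified by TMT10plex mass spectrometry, three biological replicates, mitosis taken 0.5 h after nocodazole release, G1/S directly after double thymidine block.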

Sequence | solubility change mitosis (log2) [1] | solubility in G1/S (log2) [2] | thermal stability score [3, 5] | thermal stability score ([3]; cell cycle stage: mitosis) | melting temperature ([4]; cell cycle stage: G1/S) [°C] | melting temperature ([4]; cell cycle stage: mitosis) [°C]
MAGAAPRVRYLAGFCCPLGGLAAGKPRVLCHEAEVFLSTGSELVYVYDQEGGLLTAAFRFPDQVWHLELLAPRRLLYALCARRGLYCLSLDHPGRSRSTSQDDRDSEDGDQPSPVIPVDPDACILPDAALCAFTLLDSVLVTLVQGPARWKMQLFEQPCPGEDPRPGGQIGEVELSSYTPPAGVPGKPAAPHFLPVLCSVSPSGSRVPHDLLGGSGGFTLEDALFGLLFGADATLLQSPVVLCGLPDGQLCCVILKALVTSRSAPGDPNALVKILHHLEEPVIFIGALKTEPQAAEAAENFLPDEDVHCDCLVAFGHHGRMLAIKASWDESGKLVPELREYCLPGPVLCAACGGGGRVYHSTPSDLCVVDLSRGSTPLGPEQPEEGPGGLPPMLCPASLNICSVVSLSASPRTHEGGTKLLALSAKGRLMTCSLDLDSEMPGPARMTTESAGQKIKELLSGIGNISERVSFLKKAVDQRNKALTSLNEAMNVSCALLSSGTGPRPISCTTSTTWSRLQTQDVLMATCVLENSSSFSLDQGWTLCIQVLTSSCALDLDSACSAITYTIPVDQLGPGARREVTLPLGPGENGGLDLPVTVSCTLFYSLREVVGGALAPSDSEDPFLDECPSDVLPEQEGVCLPLSRHTVDMLQCLRFPGLAPPHTRAPSPLGPTRDPVATFLETCREPGSQPAGPASLRAEYLPPSVASIKVSAELLRAALKDGHSGVPLCCATLQWLLAENAAVDVVRARALSSIQGVAPDGANVHLIVREVAMTDLCPAGPIQAVEIQVESSSLADICRAHHAVVGRMQTMVTEQATQGSSAPDLRVQYLRQIHANHETLLREVQTLRDRLCTEDEASSCATAQRLLQVYRQLRHPSLILL [FAAP100] | -0.00216 | 0.0643 | -0.383 | 0.0611 | 54 | 52.6
MAGASELGTGPGAAGGDGDDSLYPIAVLIDELRNEDVQLRLNSIKKLSTIALALGVERTRSELLPFLTDTIYDEDEVLLALAEQLGNFTGLVGGPDFAHCLLPPLENLATVEETVVRDKAVESLRQISQEHTPVALEAYFVPLVKRLASGDWFTSRTSACGLFSVCYPRASNAVKAEIRQQFRSLCSDDTPMVRRAAASKLGEFAKVLELDSVKSEIVPLFTSLASDEQDSVRLLAVEACVSIAQLLSQDDLETLVMPTLRQAAEDKSWRVRYMVADRFSELQKAMGPKITLNDLIPAFQNLLKDCEAEVRAAAAHKVKELGENLPIEDRETIIMNQILPYIKELVSDTNQHVKSALASVIMGLSTILGKENTIEHLLPLFLAQLKDECPDVRLNIISNLDCVNEVIGIRQLSQSLLPAIVELAEDAKWRVRLAIIEYMPLLAGQLGVEFFDEKLNSLCMAWLVDHVYAIREAATNNLMKLVQKFGTEWAQNTIVPKVLVMANDPNYLHRMTTLFCINALSEACGQEITTKQMLPIVLKMAGDQVANVRFNVAKSLQKIGPILDTNALQGEVKPVLQKLGQDEDMDVKYFAQEAISVLALA [PPP2R1B] | -0.0603 | 0.391 | 1.92 | 2.96 | 49.2 | 49.6
MAGGGGDLSTRRLNECISPVANEMNHLPAHSHDLQRMFTEDQGVDDRLLYDIVFKHFKRNKVEISNAIKKTFPFLEGLRDRDLITNKMFEDSQDSCRNLVPVQRVVYNVLSELEKTFNLPVLEALFSDVNMQEYPDLIHIYKGFENVIHDKLPLQESEEEEREERSGLQLSLEQGTGENSFRSLTWPPSGSPSHAGTTPPENGLSEHPCETEQINAKRKDTTSDKDDSLGSQQTNEQCAQKAEPTESCEQIAVQVNNGDAGREMPCPLPCDEESPEAELHNHGIQINSCSVRLVDIKKEKPFSNSKVECQAQARTHHNQASDIIVISSEDSEGSTDVDEPLEVFISAPRSEPVINNDNPLESNDEKEGQEATCSRPQIVPEPMDFRKLSTFRESFKKRVIGQDHDFSESSEEEAPAEASSGALRSKHGEKAPMTSRSTSTWRIPSRKRRFSSSDFSDLSNGEELQETCSSSLRRGSGSQPQEPENKKCSCVMCFPKGVPRSQEARTESSQASDMMDTMDVENNSTLEKHSGKRRKKRRHRSKVNGLQRGRKKDRPRKHLTLNNKVQKKRWQQRGRKANTRPLKRRRKRGPRIPKDENINFKQSELPVTCGEVKGTLYKERFKQGTSKKCIQSEDKKWFTPREFEIEGDRGASKNWKLSIRCGGYTLKVLMENKFLPEPPSTRKKRILESHNNTLVDPCEEHKKKNPDASVKFSEFLKKCSETWKTIFAKEKGKFEDMAKADKAHYEREMKTYIPPKGEKKKKFKDPNAPKRPPLAFFLFCSEYRPKIKGEHPGLSIDDVVKKLAGMWNNTAAADKQFYEKKAAKLKEKYKKDIAAYRAKGKPNSAKKRVVKAEKSKKKKEEEEDEEDEQEEENEEDDDK [SP100] | 0.113 | 0.0834 | -2.83 | -2.43 | 51.9 | 51.9
MAGLSDLELRRELQALGFQPGPITDTTRDVYRNKLRRLRGEARLRDEERLREEARPRGEERLREEARLREDAPLRARPAAASPRAEPWLSQPASGSAYATPGAYGDIRPSAASWVGSRGLAYPARPAQLRRRASVRGSSEEDEDARTPDRATQGPGLAARRWWAASPAPARLPSSLLGPDPRPGLRATRAGPAGAARARPEVGRRLERWLSRLLLWASLGLLLVFLGILWVKMGKPSAPQEAEDNMKLLPVDCERKTDEFCQAKQKAALLELLHELYNFLAIQAGNFECGNPENLKSKCIPVMEAQEYIANVTSSSSAKFEAALTWILSSNKDVGIWLKGEDQSELVTTVDKVVCLESAHPRMGVGCRLSRALLTAVTNVLIFFWCLAFLWGLLILLKYRWRKLEEEEQAMYEMVKKIIDVVQDHYVDWEQDMERYPYVGILHVRDSLIPPQSRRRMKRVWDRAVEFLASNESRIQTESHRVAGEDMLVWRWTKPSSFSDSER [LEMD2] | 0.776 | -0.759 | -1.63 | -1.98 | 52.5 | 51.1
MAGMVDFQDEEQVKSFLENMEVECNYHCYHEKDPDGCYRLVDYLEGIRKNFDEAAKVLKFNCEENQHSDSCYKLGAYYVTGKGGLTQDLKAAARCFLMACEKPGKKSIAACHNVGLLAHDGQVNEDGQPDLGKARDYYTRACDGGYTSSCFNLSAMFLQGAPGFPKDMDLACKYSMKACDLGHIWACANASRMYKLGDGVDKDEAKAEVLKNRAQQLHKEQQKGVQPLTFG [COA7] | 0.0461 | 0.586 | -1.59 | -1.97 | 52.9 | 52.7

Reference: the supplement of paper PMC5998384
